{
  "source": "paper doi:10.1101/2023.03.13.532385",
  "key": {"[1]": {"target": "composite αS/N-protein fibrils (fibril strain s1, from plateau p1) (human | SARS-CoV-2) (UniProt P37840)", "assay": "co-sedimentation"}, "[2]": {"target": "human alpha-synuclein wild-type (human) (UniProt P37840)", "assay": "co-sedimentation"}},
  "data": [
    {"substance": "human alpha-synuclein wild-type (from UniProt P37840 1-140) (natural protein)", "values": [
      {"measurement": "αS aggregated into fibrils at p1", "setting": "[1]", "value": 8, "unit": "µM"},
      {"measurement": "αS aggregated into fibrils at p2", "setting": "[2]", "value": 24, "unit": "µM"}
    ]}
  ]
}
